Source: patent US20200199244A1 (published 2020)
Numbering of substitutions follows the chain as printed. Where “and” joins values, the source holds several entries; their conditions need not be identical. Equal entries are not always repeated.

B1: BMS3h-37-2 (other)
VH: EVQLLESGGGLVQPGGSLRLSCAASGFTFEWYEMQWVRRAPGKGLEWVSAISGDGYRTYYADSVKGRFTISRDNSKNTLYLQMNSLRAEDTAVYYCAKELGYFDYWGRGTLVTVSS
notes: domain antibody (dAb), single VH domain
B2: BMS3h-56-262 (other)
VH: EVQLLESGGGLVQPGGSLRLSCAASGFTFRDYEMWWVRQAPGKGLERVSAINPQGTRTYYADSVKGRFTISRDNSKNTLYLQMNSLRAEDTAVYYCAKLPQLFHDRGQGTLVTVSS
notes: domain antibody (dAb): single human VH domain
B3: BMS3h-56-265 (other)
VH: B2 VH with H104Q, R106W
notes: as for B2
B4: BMS3h-56-266 (other)
VH: B2 VH with Q101F, L102F, D105E, R106W
notes: as for B2
B5: BMS3h-56-269 (other)
VH: B2 VH with Q101F, L102R, H104S
notes: as for B2
B6: BMS3h-56-270 (other)
VH: B2 VH with Q101T, H104Q, R106W
notes: as for B2
B7: BMS3h-56-261 (other)
VH: B2 VH with Q101F, L102F, H104Q, D105E, R106W
notes: as for B2
B8: BMS3h-56-258 (other)
VH: B2 VH with Q101F, L102Y, D105E, R106W
notes: as for B2
B9: BMS3h-56-1 (other)
VH: B2 VH with Q101F, L102T, H104E, R106W
notes: Anti-human CD40 domain antibody (dAb), single VH domain
B10: BMS3h-56-2 (other)
VH: B2 VH with Q101F, L102T, H104D, R106W
notes: as for B9
B11: BMS3h-37-2 (other)
VH: B1 VH
notes: Human domain antibody (dAb), single VH domain
B12: BMS3h-37-11 (other)
VH: B1 VH with R39K, W106R
notes: as for B11
B13: BMS3h-38-2 (other)
VH: EVQLLASGGGLVQPGGSLRLSCAASGFTFEEEEMIWVRQAPGKGLEWVSAISGSGGSTYYADSVKGRFTISRDNSKNTLYLQMNSLRAEDTAVYYCGKEPFRYDYWGQGTLVTVSS
notes: as for B11
B14: BMS3h-38-211 (other)
VH: B13 VH with G53R, S54Q
notes: as for B11
B15: BMS3h-38-215 (other)
VH: B13 VH with S54L, G56W
notes: as for B11
B16: BMS3h-38-217 (other)
VH: B13 VH with G53R, S54R, G56Y
notes: as for B11
B17: DMS0659 DOM7h-11-87-TVAAPS-BMS3h-56-201 (bispecific antibody)
chain: DIQMTQSPSSLSASVGDRVTITCRASRPIGTMLSWYQQKPGKAPKLLILAFSRLQSGVPSRFSGSGSGTDFTLTISSLQPEDFATYYCAQAGTHHTTFGQGTKVEIKRTVAAPSEVQLLESGGGLVQPGGSLRLSCAASGFTFRDYEMWWVRQAPGKGLERVSAINPQGTRTYYADSVKGRFTISRDNSKNTLYLQMNSLRAEDTAVYYCAKLPFYFQEWGQGTLVTVSS
notes: AlbudAb inline fusion (ILF): an anti-CD40 dAb and an anti-serum-albumin dAb joined by a linker in one polypeptide
B18: DMS0655 BMS3h-56-201-AST-DOM7h-11-87 (bispecific antibody)
chain: EVQLLESGGGLVQPGGSLRLSCAASGFTFRDYEMWWVRQAPGKGLERVSAINPQGTRTYYADSVKGRFTISRDNSKNTLYLQMNSLRAEDTAVYYCAKLPFYFQEWGQGTLVTVSSASTDIQMTQSPSSLSASVGDRVTITCRASRPIGTMLSWYQQKPGKAPKLLILAFSRLQSGVPSRFSGSGSGTDFTLTISSLQPEDFATYYCAQAGTHHTTFGQGTKVEIKR
notes: as for B17
B19: DMS0656 BMS3h-56-258-AST-DOM7h-11-3 (bispecific antibody)
chain: B18 chain with Q104H, M151T, A169W, F170N, H214P
notes: as for B17
B20: DMS0657 BMS3h-56-258-AST-DOM7h-11-87 (bispecific antibody)
chain: B18 chain with Q104H
notes: as for B17
B21: DMS0658 DOM7h-11-3-TVAAPS-BMS3h-56-201 (bispecific antibody)
chain: B17 chain with M32T, A50W, F51N, H95P
notes: as for B17
B22: DMS0660 DOM7h-11-3-TVAAPS-BMS3h-56-258 (bispecific antibody)
chain: B17 chain with M32T, A50W, F51N, H95P, Q218H
notes: as for B17
B23: DMS0661 DOM7h-11-87-TVAAPS-BMS3h-56-258 (bispecific antibody)
chain: B17 chain with Q218H
notes: as for B17

What follows are binders tested against T1, human CD40 (W109R) Fc fusion (Chimpanzee CD40) (human, UniProt P25942 21-193) (assay: SPR ProteOn XPR36;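 note: surface plasmon resonance with CD40-Fc fusions captured through their Fc on an anti-human IgG chip, sensorgrams reference-subtracted against surfaces lacking CD40-Fc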).
T1 construct: As m1 with W109R (residue of chimpanzee CD40); also called hCD40-M3; not shown: human IgG1 Fc

Binder	binding result
B1	no binding (tested: 405 nM)

The binders below were run against T2, human CD40 (W109L, L121P) Fc fusion (human, UniProt P25942 21-193) (assay: SPR ProteOn XPR36;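 note: surface plasmon resonance with CD40-Fc fusions captured through their Fc on an anti-human IgG chip, sensorgrams reference-subtracted against surfaces lacking CD40-Fc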).
T2 construct: As m1 with W109L and L121P; also called hCD40-M4; not shown: human IgG1 Fc

Binder	binding result
B1	no binding (tested: 405 nM)

Target: T3, human CD40 (H76R, W109L, L121P) Fc fusion (human)
T3 construct: As m1 with H76R, W109L and L121P; also called hCD40-M5; not shown: human IgG1 Fc
T3 chain: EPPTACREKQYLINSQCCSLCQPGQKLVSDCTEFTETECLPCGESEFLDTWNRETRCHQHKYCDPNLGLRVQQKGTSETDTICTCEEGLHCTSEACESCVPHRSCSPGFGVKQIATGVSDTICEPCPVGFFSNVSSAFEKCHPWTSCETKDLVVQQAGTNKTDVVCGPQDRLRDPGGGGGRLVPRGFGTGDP
Test: SPR ProteOn XPR36;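 note: surface plasmon resonance with CD40-Fc fusions captured through their Fc on an anti-human IgG chip, sensorgrams reference-subtracted against surfaces lacking CD40-Fc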

Binder	binding result
B1	no binding (tested: 405 nM)

Target: T4, wild type cynomolgus monkey CD40 Fc fusion (cynomolgus monkey; human)
T4 construct: also called wt-cyno-CD40; wt-cCD40; not shown: human IgG1 Fc
T4 chain: T3 chain with A95S, S106L, H142R, L172Q
Test: SPR ProteOn XPR36;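 note: surface plasmon resonance with CD40-Fc fusions captured through their Fc on an anti-human IgG chip, sensorgrams reference-subtracted against surfaces lacking CD40-Fc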

Binder	binding result
B1	no binding (tested: 405 nM)

What follows are binders tested against human CD40 on RAMOS human B cells (human, UniProt P25942 21-277) (assay: cell-based or functional assay).

Binder	EC50 ICAM1 cell assay [nM]
B2	135
B3	289
B4	31.9
B5	34.2
B6	93.8
B7	42.4
B8	23

These binders were tested against T5, wild type human CD40 Fc fusion (human, UniProt P25942 21-193) (assay: SPR ProteOn XPR36, CD40-Fc captured, dAb analyte).
T5 construct: also called wt-hCD40; not shown: human IgG1 Fc

Binder	Kd [nM]
B1	2

What follows are binders tested against T6, human CD40 (H76R) Fc fusion (human, UniProt P25942 21-193) (assay: SPR ProteOn XPR36, CD40-Fc captured, dAb analyte).
T6 construct: As m1 with H76R; also called hCD40-M1; not shown: human IgG1 Fc

Binder	Kd [nM]
B1	2.6

What follows are binders tested against T7, human CD40 (W109L, L121P) Fc fusion (human, UniProt P25942 21-193) (assay: SPR, ProteOn XPR36; CD40-Fc captured, dAb analyte).
T7 construct: Same construct as wt-hCD40 with W109L and L121P; also called hCD40-M4; hCD40 M4 (W109L, L121P); not shown: human IgG1 Fc

Binder	binding result
B9	no binding (tested: dAb tested up to 405 nM)
B10	no binding (tested: dAb tested up to 405 nM)

Target: T8, human CD40 (H76R, W109L, L121P) Fc fusion (human)
T8 construct: Same construct as wt-hCD40 with H76R, W109L and L121P; also called hCD40-M5; hCD40-M5 (H76R, W109L, L121P); not shown: human IgG1 Fc
T8 chain: T3 chain
Test: SPR, ProteOn XPR36; CD40-Fc captured, dAb analyte

Binder	binding result
B9	no binding (tested: dAb tested up to 405 nM)
B10	no binding (tested: dAb tested up to 405 nM)

Target: T9, wild type cynomolgus monkey CD40 Fc fusion (cynomolgus monkey (Macaca …))
T9 construct: also called wt-cCD40; wt-cyno-CD40; not shown: human IgG1 Fc
T9 chain: T3 chain with A95S, S106L, H142R, L172Q
Test: SPR, ProteOn XPR36; CD40-Fc captured, dAb analyte

Binder	binding result
B9	no binding (tested: dAb tested up to 405 nM)

Each binder was assayed against T10, human CD40 expressed on stably transfected CHO-DG44 cells (human, UniProt P25942 21-277) (assay: CHO-CD40 cell RBA, competition with IZ-CD40L (FMAT)).
T10 construct: Cell-surface human CD40 in the CHO cell RBA; also called CHO-CD40; human CD40 CHO cells
Experimental: The mixture was incubated in the absence of light for 6 hours.

Binder	EC50 [nM]
B2	42
B3	88
B4	27
B5	24
B6	91
B7	17
B8	15

These binders were tested against T11, human CD40 (BMS, CY24FEB06-01) (human, UniProt P25942 21-193) (assay: ELISA RBA, competition with IZ-CD40L for soluble human CD40;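 note: Neutravidin-coated 384-well plates, dAb–human CD40 complex incubated 2 h at room temperature, read-out as absorbance at 450 nm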).
T11 construct: Soluble human CD40 reagent of the ELISA RBA
Experimental: Clear walled High Bind, 384-well plates (Corning, UK) were coated with 25 μl of 1 μg/ml Neutravidin in 0.2 M carbonate-bicarbonate buffer, pH 9.4 overnight at 4° C. The following day, assay plates were washed with 0.1% (v/v) Tween PBS buffer, blocked with 1% (w/v) BSA in PBS for 1 hour at room temperature and washed again. […] Following washing of the assay plate, the dAb:human CD40 complex was incubated in the assay plate at room temperature for 2 hours with gentle agitation. […] Absorbance signal was measured using a SpectraMax® M5e plate reader (Molecular Devices) at 450 nm following neutralization with 1M HCl solution.

Binder	EC50 [nM]
B2	4
B3	18.8
B4	3.8
B5	3.3
B6	11.3
B7	5.7
B8	5.2

What follows are binders tested against T12, wild type human CD40 Fc fusion (human, UniProt P25942 21-193) (assay: SPR (ProteOn XPR36), dAb over CD40-Fc captured by anti-human IgG(Fc)).
T12 construct: also called wt-hCD40
Experimental: (§1) Assays were performed on a BioRad ProteOn XPR36 SPR instrument. The SPR surfaces were prepared by immobilizing 8 μg/ml anti-human IgG(Fc) antibody (Biacore/GE Healthcare) in 10 mM sodium acetate pH 4.5 on a BioRad GLC sensor chip using standard ethyl(dimethylaminopropyl) carbodiimide (EDC)/N-hydroxysuccinimide (NHS) chemistry, with ethanolamine blocking. The running buffer for immobilization and kinetic binding analysis was 10 mM sodium phosphate, 130 mM sodium chloride, 0.05% tween 20, pH 7.1. CD40-Fc fusion proteins at concentrations of 20 μg/ml were captured in the vertical orientation on these surfaces via the Fc tail, and reference surfaces lacking CD40-Fc proteins were used for reference subtraction. […] The surfaces were regenerated in both horizontal and vertical orientations with 30 s pulses of 3 M MgCl₂ followed by running buffer at 60 μl/min. Sensogram data was double-referenced and then fitted to a 1:1 Langmuir model using BioRad ProteOn Manager V.2.1.0.38 software, to determine the association rate constant (ka), the dissociation rate constant (kd), and the equilibrium dissociation constant (KD).

Binder	Kd [nM]
B11	< 10
B12	< 10
B13	< 10
B14	< 10
B15	< 10
B16	< 10

These binders were tested against T13, human CD40 (H76R) Fc fusion (human, UniProt P25942 21-193) in the same assay as above.
T13 construct: Built as wt-hCD40 with the printed substitution; also called hCD40-M1; hCD40 M1 (H76R)
Experimental: as §1

Binder	Kd [nM]
B11	< 10
B12	< 10
B13	< 10
B14	< 10
B15	< 10
B16	< 10

These binders were tested against T14, cynomolgus serum albumin (cynomolgus, UniProt A2V9Z4 25-608) (assay: SPR (BIAcore 3000), CSA amine-coupled on CM5 chip, ILF as analyte, 1:1 Langmuir fit, 25 C).
T14 construct: Amine-coupled to a CM5 BIAcore chip; also called CSA; Cyno Serum Albumin
T14 sequence (A2V9Z4 25-608 limits assumed): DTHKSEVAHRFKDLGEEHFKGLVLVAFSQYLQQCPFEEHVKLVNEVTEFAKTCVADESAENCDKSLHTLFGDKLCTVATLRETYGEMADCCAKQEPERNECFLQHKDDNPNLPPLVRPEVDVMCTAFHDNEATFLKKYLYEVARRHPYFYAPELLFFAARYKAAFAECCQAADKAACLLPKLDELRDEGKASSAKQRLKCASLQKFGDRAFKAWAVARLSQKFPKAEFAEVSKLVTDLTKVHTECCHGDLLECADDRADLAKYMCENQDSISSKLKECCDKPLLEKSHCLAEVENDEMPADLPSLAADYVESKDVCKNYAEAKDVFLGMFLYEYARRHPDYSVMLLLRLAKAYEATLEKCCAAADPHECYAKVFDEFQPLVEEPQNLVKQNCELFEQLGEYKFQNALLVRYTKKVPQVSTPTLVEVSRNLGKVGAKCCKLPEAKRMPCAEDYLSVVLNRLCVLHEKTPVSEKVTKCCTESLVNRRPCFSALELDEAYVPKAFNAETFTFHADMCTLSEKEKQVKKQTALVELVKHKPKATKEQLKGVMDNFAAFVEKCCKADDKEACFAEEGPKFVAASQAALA
Text: (§2) A BIAcore™ 3000 instrument (GE Healthcare) was used to analyze the binding kinetics of anti-CD40-AlbudAb ILFs to human and cynomolgus serum albumin. Approximately 400 response units (RU) of human serum albumin (HSA) or cynomolgus serum albumin (CSA) were immobilized on a flow-cell of a CM5 BIAcore™ chip using an Amine Coupling Kit (GE Healthcare). A second flow cell without any ligand immobilized served as a reference flow-cell for inline referencing. An appropriate doubling dilution series of each dAb to be analyzed was prepared in HBS-EP buffer (0.01 M HEPES pH 7.4 with 0.15 M NaCl, 3 mM EDTA and 0.005% v/v Surfactant P20, GE Healthcare). Two hundred microlitres of each ILF were injected in duplicate using the instrument's KINJECT function. The injections were made across the serum albumin-immobilized and reference flow-cells in series, with inline subtraction of the signal from the reference cell. The experiment was performed at 25° C. and a flow rate of 40 μl/min of HBS-EP. After each injection had been completed, the dAb was allowed to dissociate from the ligand in buffer for 120 s before regeneration with a 10 μl injection of 10 mM glycine pH 2.0. A reference injection of HBS-EP buffer blank (containing no analyte) was also injected under the same conditions to serve as a second reference for subtraction from each analyte trace. BIAevaluation 4.1 software (GE Healthcare) was used to subtract both the reference flow-cell trace and the buffer blank trace from each analyte trace.
(§3) The same software was used to perform a simultaneous, global fit of a 1:1 (Langmuir) kinetic model to the association and dissociation phases of the analyte dilution series traces. This model yielded association and dissociation rate constants (kₐ and kd, respectively) and the equilibrium dissociation constant (KD) of the interaction.

Binder	koff
B17	0.00237 s⁻¹ and 0.00337 s⁻¹ and 0.0024 s⁻¹

The binders below were run against T15, human serum albumin (human, UniProt P02768 25-609) (assay: SPR (BIAcore 3000), HSA amine-coupled on CM5 chip, ILF as analyte, 1:1 Langmuir fit, 25 C).
T15 construct: Amine-coupled to a CM5 BIAcore chip; also called HSA
T15 sequence (P02768 25-609 limits assumed): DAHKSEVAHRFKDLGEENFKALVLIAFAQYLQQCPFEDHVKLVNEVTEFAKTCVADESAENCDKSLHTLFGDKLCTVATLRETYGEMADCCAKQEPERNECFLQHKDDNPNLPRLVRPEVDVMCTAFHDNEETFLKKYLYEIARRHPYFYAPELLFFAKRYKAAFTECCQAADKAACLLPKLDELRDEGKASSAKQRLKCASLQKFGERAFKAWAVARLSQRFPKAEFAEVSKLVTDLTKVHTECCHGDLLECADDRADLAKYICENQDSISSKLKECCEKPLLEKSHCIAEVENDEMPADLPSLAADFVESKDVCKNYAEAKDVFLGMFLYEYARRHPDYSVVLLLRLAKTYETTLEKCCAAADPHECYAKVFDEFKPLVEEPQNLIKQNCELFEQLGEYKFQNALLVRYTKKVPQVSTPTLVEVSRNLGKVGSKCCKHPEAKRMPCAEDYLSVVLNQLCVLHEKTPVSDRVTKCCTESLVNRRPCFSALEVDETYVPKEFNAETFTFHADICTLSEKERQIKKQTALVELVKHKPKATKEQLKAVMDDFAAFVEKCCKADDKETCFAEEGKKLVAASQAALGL
Text: as §2, §3

Binder	koff
B17	0.00117 s⁻¹ and 0.00169 s⁻¹ and 0.0012 s⁻¹

The binders below were run against T16, human CD40 (human, UniProt P25942 21-277) (assay: CHO-CD40 cell RBA: competition with biotinylated human IZ-CD40L for human CD40 on CHO cells, fluorescence (FMAT); 0.1% BSA).
T16 construct: Native on primary human tonsillar B cells, monocyte-derived dendritic cells and RAMOS cells; stably transfected on CHO-DG44 cells; also called hCD40

Binder	EC50 [nM]
B17	7.2
B18	6.3
B19	11.8
B20	6.8
B21	12.2
B22	21.8
B23	4.1

What follows are binders tested against T16, human CD40 (assay: CHO-CD40 cell RBA: competition with biotinylated human IZ-CD40L for human CD40 on CHO cells, fluorescence (FMAT); 50 µM HSA).

Binder	EC50 [nM]
B17	3.3
B18	2.7
B19	26.8
B20	16.6
B21	9.1
B22	13.1
B23	5.7
